Assay results as given in patent US20260274981A1 (VIB VZW, published 2026).
Where a chain is given by its changes, count along the chain named.

B1: BBB00736 (VHH)
VHH: EVQLVESGGGLVQAGGSLRLSCAASGSIFSINAMGWYRQAPGKQRELVAVITSGGSTIYADSVKGRFTISRDNAENTVYLQMNSLRPEDTAVYYCNAHVGLKVPTIQELSLGFGSWGQGTLVTVSS
notes: also called variant of BBB00515
B2: BBB00756 (VHH)
VHH: B1 VHH with V99H
notes: also called histidine mutant of BBB00533
B3: BBB00740 (VHH)
VHH: B1 VHH with F29H
notes: Histidine mutant
B4: BBB00764 (VHH)
VHH: B1 VHH with Q107H
notes: Histidine mutant
B5: BBB00741 (VHH)
VHH: B1 VHH with S30H
notes: as for B2
B6: BBB00738 (VHH)
VHH: B1 VHH with S27H
notes: Histidine mutant
B7: BBB00745 (VHH)
VHH: B1 VHH with M34H
notes: Histidine mutant
B8: BBB00767 (VHH)
VHH: B1 VHH with S110H
notes: Histidine mutant
B9: BBB00770 (VHH)
VHH: B1 VHH with F113H
notes: as for B2
B10: BBB00758 (VHH)
VHH: B1 VHH with L101H
notes: as for B2
B11: BBB00739 (VHH)
VHH: B1 VHH with I28H
notes: as for B2
B12: BBB00771 (VHH)
VHH: B1 VHH with G114H
notes: Histidine mutant
B13: BBB00763 (VHH)
VHH: B1 VHH with I106H
notes: as for B2
B14: BBB00737 (VHH)
VHH: B1 VHH with G26H
notes: Histidine mutant
B15: BBB00677 (VHH)
VHH: EVQLVESGGGSVQPGGSLRLSCTASGRTFNYAMGWFRQAPGKNREFVATIDWKDGSSYYLDSVRGRFTIERDDAKNTVYLQMNSLRPEDAAVYTCAVGDGDYCSTYTCAAEVEYDYWGQGTLVTVSS
notes: also called variant of BBB00533
B16: BBB00728 (VHH)
VHH: B15 VHH with D115H
notes: Histidine mutant
B17: BBB00694 (VHH)
VHH: B15 VHH with G26H
notes: Histidine mutant
B18: BBB00708 (VHH)
VHH: B15 VHH with D54H
notes: Histidine mutant
B19: BBB00729 (VHH)
VHH: B15 VHH with Y116H
notes: also called histidine mutant of BBB00515
B20: BBB00699 (VHH)
VHH: B15 VHH with Y31H
notes: Histidine mutant
B21: BBB00697 (VHH)
VHH: B15 VHH with F29H
notes: as for B19
B22: BBB00695 (VHH)
VHH: B15 VHH with R27H
notes: Histidine mutant
B23: BBB00719 (VHH)
VHH: B15 VHH with T105H
notes: Histidine mutant
B24: BBB00704 (VHH)
VHH: B15 VHH with I50H
notes: as for B19
B25: BBB00709 (VHH)
VHH: B15 VHH with G55H
notes: as for B19
B26: BBB00710 (VHH)
VHH: B15 VHH with S56H
notes: as for B19
B27: BBB00718 (VHH)
VHH: B15 VHH with S104H
notes: as for B19
B28: BBB00716 (VHH)
VHH: B15 VHH with D101H
notes: Histidine mutant
B29: BBB00698 (VHH)
VHH: B15 VHH with N30H
notes: as for B19
B30: BBB00707 (VHH)
VHH: B15 VHH with K53H
notes: Histidine mutant

What follows are binders tested against T1, recombinant human TfR (2474-TR, R&D Systems), biotinylated (human, UniProt P02786 89-760, biotinylated with EZ-Link NHS-PEG4-Biotinylation Kit) (assay: SPR (Biacore), biotinylated human TfR captured on an SA chip, VHH injected, 1:1 dissociation fit, pH 5.5).
T1 construct: Bought protein; also called immobilized recombinant human TfR; biotinylated human TfR
Procedure: (§1) E. coli TG1 bacteria were transformed with those plasmids and expressions induced. Crude extracts were prepared and analyzed for binding by flow cytometry on human TfR overexpressing cells. […] Next, off rates of these selected variants were determined on recombinant human TfR by surface plasmon resonance (Biacore, Marlborough, Massachusetts, United States). Biotinylated human TfR was captured on a streptavidin-coated SA sensor chip (Cytiva). Increasing concentrations of nanobodies were sequentially injected in a single cycle at a flow rate of 30 μL/min. The dissociation was monitored for around 20 min. A reference flow was used as a control for non-specific binding and refractive index changes. Several buffer blanks were used for double referencing. Off rates were derived after fitting the experimental data to the 1:1 binding model with the Biacore Evaluation Software.
(§2) Surface Plasmon Resonance (SPR) was used to measure the interaction between VHHs and human or cynomolgus TfR receptor. Human TfR (2474-TR, R&D Systems) and cynomolgus TfR (90253-C07H, Sino Biological) were biotinylated with the EZ-Link NHS-PEG4-Biotinylation Kit (ThermoFischer Scientific) according to the manufacturer instructions. The binding experiments were performed at 25° C. on a Biacore T200 instrument (Cytiva, Uppsala, Sweden) in HBS-EP+ buffer (10 mM HEPES, 150 mM NaCl, 3 mM EDTA and 0.05% v/v Surfactant P20). Biotinylated human TfR and cynomolgus TfR were captured on a SA sensor chip (Cytiva) at a density of around 250 RU. Increasing concentrations of VHHs were sequentially injected in one single cycle at a flow rate of 30 μl/min. The dissociation was monitored for 20 min. […] A reference flow was used as a control for non-specific binding and refractive index changes. Several buffer blanks were used for double referencing. Binding affinities (KD) and kinetic rate constants (kₒₙ, koff) were derived after fitting the experimental data to the 1:1 binding model with the Biacore T200 Evaluation Software 3.1 using the single cycle kinetic procedure.

T1 sequence (P02786 89-760 limits assumed): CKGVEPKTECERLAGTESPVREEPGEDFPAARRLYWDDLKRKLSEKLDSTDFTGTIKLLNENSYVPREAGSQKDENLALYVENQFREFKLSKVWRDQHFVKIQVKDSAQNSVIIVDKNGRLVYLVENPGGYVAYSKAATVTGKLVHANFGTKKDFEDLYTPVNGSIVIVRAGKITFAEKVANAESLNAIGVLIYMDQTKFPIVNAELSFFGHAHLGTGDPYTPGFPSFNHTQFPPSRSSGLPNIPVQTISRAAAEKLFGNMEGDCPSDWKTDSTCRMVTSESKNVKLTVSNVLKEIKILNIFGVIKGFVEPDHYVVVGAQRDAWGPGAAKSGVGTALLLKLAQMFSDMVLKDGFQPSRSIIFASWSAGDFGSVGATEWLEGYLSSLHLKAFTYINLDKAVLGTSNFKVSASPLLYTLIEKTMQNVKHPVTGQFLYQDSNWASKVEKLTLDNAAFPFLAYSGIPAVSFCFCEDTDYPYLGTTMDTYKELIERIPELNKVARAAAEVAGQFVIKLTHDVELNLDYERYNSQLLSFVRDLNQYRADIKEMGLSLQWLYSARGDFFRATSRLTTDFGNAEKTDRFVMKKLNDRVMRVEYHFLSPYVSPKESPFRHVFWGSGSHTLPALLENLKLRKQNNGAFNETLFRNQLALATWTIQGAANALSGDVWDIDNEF

| koff [s⁻¹] | Binder |
| --- | --- |
| 0.0183 | B1 |
| 0.019 | B2 |
| 0.0221 | B3 |
| 0.0206 | B4 |
| 0.0151 | B5 |
| 0.0171 | B6 |
| 0.0161 | B7 |
| 0.0113 | B8 |
| 0.0245 | B9 |
| 0.0657 | B10 |
| 0.0223 | B11 |
| 0.0183 | B12 |
| 0.022 | B13 |
| 0.02 | B14 |

The binders below were run against T1, recombinant human TfR (2474-TR, R&D …) (assay: SPR (Biacore), biotinylated human TfR captured on an SA chip, VHH injected, 1:1 dissociation fit, pH 7.4).
Procedure: as §1, §2

| koff [s⁻¹] | Binder |
| --- | --- |
| 0.00782 | B1 |
| 0.00735 | B2 |
| 0.00954 | B3 |
| 0.0102 | B4 |
| 0.00551 | B5 |
| 0.00918 | B6 |
| 0.00773 | B7 |
| 0.00507 | B8 |
| 0.00727 | B9 |
| 0.00908 | B10 |
| 0.00761 | B11 |
| 0.011 | B12 |
| 0.00933 | B13 |
| 0.00861 | B14 |

What follows are binders tested against T1, recombinant human TfR (2474-TR, R&D …) (assay: SPR (Biacore), ratio of the off rates on human TfR at the two pH values; the printed number equals kd at pH 5.5 divided by kd at pH 7.4).
Procedure: as §1, with “In brief, DNA was synthesized by Genscript (Piscataway, New Jersey, United States) and cloned into an E. coli compatible expression plasmid according to standard methods. E.” for “E.”

| off-rate ratio kd pH5.5/kd pH7.4 | Binder |
| --- | --- |
| 1.74 | B15 |
| 1.62 | B16 |
| 1.35 | B17 |
| 1.57 | B18 |
| 2.01 | B19 |
| 1.64 | B20 |
| 1.79 | B21 |
| 1.51 | B22 |
| 1.55 | B23 |
| 2.55 | B24 |
| 1.84 | B25 |
| 2.84 | B26 |
| 2.21 | B27 |
| 1.7 | B28 |
| 2.15 | B29 |
| 1.44 | B30 |

Target: T1, recombinant human TfR (2474-TR, R&D …)
Experiment: as above
Remark: another data set of the same source
Procedure: as §1, §2

| off-rate ratio kd pH5.5/kd pH7.4 | Binder |
| --- | --- |
| 2.35 | B1 |
| 2.58 | B2 |
| 2.32 | B3 |
| 2.02 | B4 |
| 2.74 | B5 |
| 1.86 | B6 |
| 2.08 | B7 |
| 2.23 | B8 |
| 3.37 | B9 |
| 7.24 | B10 |
| 2.93 | B11 |
| 1.67 | B12 |
| 2.36 | B13 |
| 2.32 | B14 |

Target: T1, recombinant human TfR (2474-TR, R&D …)
Experiment: SPR (Biacore), biotinylated human TfR captured on an SA chip, VHH injected, 1:1 dissociation fit, pH 7.4
Remark: another data set of the same source
Procedure: as §1, with “In brief, DNA was synthesized by Genscript (Piscataway, New Jersey, United States) and cloned into an E. coli compatible expression plasmid according to standard methods. E.” for “E.”

| koff [s⁻¹] | Binder |
| --- | --- |
| 0.00545 | B15 |
| 0.00787 | B16 |
| 0.00538 | B17 |
| 0.00547 | B18 |
| 0.00562 | B19 |
| 0.00524 | B20 |
| 0.00596 | B21 |
| 0.00577 | B22 |
| 0.00586 | B23 |
| 0.00358 | B24 |
| 0.00511 | B25 |
| 0.00444 | B26 |
| 0.00695 | B27 |
| 0.00533 | B28 |
| 0.00506 | B29 |
| 0.00439 | B30 |

Target: T1, recombinant human TfR (2474-TR, R&D …)
Experiment: SPR (Biacore), biotinylated human TfR captured on an SA chip, VHH injected, 1:1 dissociation fit, pH 5.5
Remark: another data set of the same source
Procedure: as §1, with “In brief, DNA was synthesized by Genscript (Piscataway, New Jersey, United States) and cloned into an E. coli compatible expression plasmid according to standard methods. E.” for “E.”

| koff [s⁻¹] | Binder |
| --- | --- |
| 0.00946 | B15 |
| 0.0127 | B16 |
| 0.00728 | B17 |
| 0.0086 | B18 |
| 0.0113 | B19 |
| 0.00858 | B20 |
| 0.0107 | B21 |
| 0.00874 | B22 |
| 0.0091 | B23 |
| 0.00911 | B24 |
| 0.00937 | B25 |
| 0.0126 | B26 |
| 0.0154 | B27 |
| 0.00904 | B28 |
| 0.0109 | B29 |
| 0.00632 | B30 |
